Data: the supplement of paper PMC6379048

Experiments:
Assay in all cases: EC50 of free RNA motif oligo competing protein binding to immobilised probe
PTBP3 = PTBP3 (UniProt O95758)
Outline: (§1)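 Free RNA oligos (0 nM to 30 μM) were pre-incubated with HEK293-FT lysate (2.5 mg protein/well) for 1 h at 4°C, followed by 30 min at 4°C with the same 5′-amino-C6 oligos coupled to NHS-Sepharose beads. Bound proteins were quantified by label-free LC-MS/MS and normalised to the control. EC50 was derived from a four-parameter log-logistic fit, and Kd was obtained by multiplying EC50 by a protein-dependent depletion factor.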

P4HA2 = P4HA2 (UniProt O15460)
Outline: as §1

SYNCRIP = target: T1, SYNCRIP (UniProt O60506)
T1 sequence: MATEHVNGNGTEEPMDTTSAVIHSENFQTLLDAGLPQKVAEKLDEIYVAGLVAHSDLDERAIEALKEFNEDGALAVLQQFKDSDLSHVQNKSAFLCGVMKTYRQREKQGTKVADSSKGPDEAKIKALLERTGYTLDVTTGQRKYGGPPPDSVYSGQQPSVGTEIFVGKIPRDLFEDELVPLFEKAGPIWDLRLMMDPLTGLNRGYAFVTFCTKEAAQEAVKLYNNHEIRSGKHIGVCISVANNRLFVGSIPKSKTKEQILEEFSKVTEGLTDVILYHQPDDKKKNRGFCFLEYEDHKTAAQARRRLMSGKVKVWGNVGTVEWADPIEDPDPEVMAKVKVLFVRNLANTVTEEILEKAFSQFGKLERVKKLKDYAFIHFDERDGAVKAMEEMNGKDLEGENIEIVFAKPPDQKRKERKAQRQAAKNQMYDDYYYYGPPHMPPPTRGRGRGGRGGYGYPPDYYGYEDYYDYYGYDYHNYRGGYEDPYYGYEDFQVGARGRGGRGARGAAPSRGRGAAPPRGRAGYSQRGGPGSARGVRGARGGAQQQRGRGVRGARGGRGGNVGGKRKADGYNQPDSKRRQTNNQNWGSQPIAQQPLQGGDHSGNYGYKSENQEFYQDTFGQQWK
Outline: as §1

GNB2L1 = GNB2L1 (UniProt P63244)
Outline: as §1

ANGEL2 = target: T2, ANGEL2 (UniProt Q5VTE6)
T2 sequence: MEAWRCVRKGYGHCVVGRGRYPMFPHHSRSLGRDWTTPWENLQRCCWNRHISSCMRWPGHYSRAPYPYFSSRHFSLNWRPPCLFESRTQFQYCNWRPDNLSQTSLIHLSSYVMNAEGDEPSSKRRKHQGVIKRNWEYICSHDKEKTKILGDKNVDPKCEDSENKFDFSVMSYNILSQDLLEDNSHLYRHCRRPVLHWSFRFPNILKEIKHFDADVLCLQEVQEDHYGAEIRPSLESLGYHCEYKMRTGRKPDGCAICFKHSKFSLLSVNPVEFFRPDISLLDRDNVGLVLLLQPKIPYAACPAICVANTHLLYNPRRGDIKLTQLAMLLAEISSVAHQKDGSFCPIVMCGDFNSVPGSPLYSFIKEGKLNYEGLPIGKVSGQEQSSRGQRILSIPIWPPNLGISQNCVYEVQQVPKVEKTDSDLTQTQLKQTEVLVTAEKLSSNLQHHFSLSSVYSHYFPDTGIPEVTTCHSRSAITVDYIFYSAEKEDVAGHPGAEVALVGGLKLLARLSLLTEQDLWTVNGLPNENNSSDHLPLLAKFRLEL
Outline: as §1

MYEF2 = target: T3, MYEF2 (UniProt Q9P2K5)
T3 sequence: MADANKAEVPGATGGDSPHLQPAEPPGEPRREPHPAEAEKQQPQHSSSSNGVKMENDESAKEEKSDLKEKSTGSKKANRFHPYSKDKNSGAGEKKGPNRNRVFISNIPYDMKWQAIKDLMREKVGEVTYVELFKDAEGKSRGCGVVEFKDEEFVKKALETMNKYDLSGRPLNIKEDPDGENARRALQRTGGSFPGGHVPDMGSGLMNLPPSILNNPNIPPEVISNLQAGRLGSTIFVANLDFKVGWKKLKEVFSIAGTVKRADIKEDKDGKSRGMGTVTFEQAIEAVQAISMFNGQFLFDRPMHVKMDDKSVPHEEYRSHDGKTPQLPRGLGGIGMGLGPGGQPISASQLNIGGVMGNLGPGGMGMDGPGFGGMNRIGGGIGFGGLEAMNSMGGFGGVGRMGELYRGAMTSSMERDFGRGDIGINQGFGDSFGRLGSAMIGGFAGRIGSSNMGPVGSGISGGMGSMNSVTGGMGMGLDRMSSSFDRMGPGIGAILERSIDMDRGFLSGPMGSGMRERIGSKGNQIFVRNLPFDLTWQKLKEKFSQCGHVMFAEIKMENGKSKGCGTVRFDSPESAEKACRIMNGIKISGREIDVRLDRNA
Outline: as §1

Chain of P4HA2 (O15460 whole entry): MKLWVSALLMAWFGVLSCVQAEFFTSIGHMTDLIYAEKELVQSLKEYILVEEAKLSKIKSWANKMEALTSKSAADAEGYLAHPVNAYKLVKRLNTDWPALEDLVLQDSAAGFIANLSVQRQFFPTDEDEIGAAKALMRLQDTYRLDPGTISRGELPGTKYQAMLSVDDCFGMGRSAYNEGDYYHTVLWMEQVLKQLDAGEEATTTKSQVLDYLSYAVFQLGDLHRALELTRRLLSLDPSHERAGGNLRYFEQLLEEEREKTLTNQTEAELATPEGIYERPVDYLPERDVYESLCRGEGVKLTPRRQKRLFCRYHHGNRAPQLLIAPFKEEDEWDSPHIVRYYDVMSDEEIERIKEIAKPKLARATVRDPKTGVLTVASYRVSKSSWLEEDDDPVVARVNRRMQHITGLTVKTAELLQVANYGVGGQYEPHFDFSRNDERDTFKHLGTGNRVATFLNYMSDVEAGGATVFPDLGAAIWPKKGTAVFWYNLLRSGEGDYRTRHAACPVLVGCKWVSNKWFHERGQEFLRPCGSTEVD
Chain of PTBP3 (O95758 whole entry): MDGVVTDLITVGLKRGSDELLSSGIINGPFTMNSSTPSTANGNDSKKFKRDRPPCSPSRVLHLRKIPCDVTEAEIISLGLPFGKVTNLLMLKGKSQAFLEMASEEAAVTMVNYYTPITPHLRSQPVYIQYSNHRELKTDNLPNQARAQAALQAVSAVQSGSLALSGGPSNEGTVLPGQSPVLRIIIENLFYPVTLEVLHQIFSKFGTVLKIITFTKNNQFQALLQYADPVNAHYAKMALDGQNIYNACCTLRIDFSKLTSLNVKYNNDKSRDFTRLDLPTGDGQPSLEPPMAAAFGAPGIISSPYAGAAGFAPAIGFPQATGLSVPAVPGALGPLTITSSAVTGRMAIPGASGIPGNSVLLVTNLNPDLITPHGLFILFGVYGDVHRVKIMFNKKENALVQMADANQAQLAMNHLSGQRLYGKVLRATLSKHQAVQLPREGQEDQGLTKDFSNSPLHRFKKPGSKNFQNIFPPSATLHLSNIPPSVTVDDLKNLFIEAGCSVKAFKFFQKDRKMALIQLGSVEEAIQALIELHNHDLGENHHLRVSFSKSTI

Sequence AAUAAA has an EC50 (PTBP3) of 6.99 µM, an EC50 (P4HA2) of 0.0389 µM and an EC50 (SYNCRIP) of 1.85 µM.
Sequence CUGUCCU has an EC50 (GNB2L1) of 2.98 µM and an EC50 (ANGEL2) of 0.504 µM.
UAUUUAU showed an EC50 (MYEF2) of 3.8 µM.
